The source of these data is PMC5526994 (Nature Communications, 2017).

B2: TBP (159-339) (domain or fragment, human, UniProt P20226 159-339, looked up)
chain: SGIVPQLQNIVSTVNLGCKLDLKTIALRARNAEYNPKRFAAVIMRIREPRTTALIFSSGKMVCTGAKSEEQSRLAARKYARVVQKLGFPAKFLDFKIQNMVGSCDVKFPIRLEGLVLTHQQFSSYEPELFPGLIYRMIKPRIVLLIFVSGKVVLTGAKVRAEIYEAFENIYPILKGFRKTT
notes: source: E. coli Rosetta (DE3)pLysS, purified (HisTrap, heparin, 3C cleavage, SEC)

Data set [1] addresses SNAPcΔ;Bdp1-WT (Homo sapiens?;Homo sapiens, UniProt Q5SXM2;Q92966;Q16533;O75971;A6H8Y1 1-516;1-411;1-368;1-98;1-484, |). In words: EMSA; Bdp1 binding to SNAPc-DNA; EMSA: 500 mM ammonium acetate, 50 mM HEPES pH 7.9, 10% glycerol, 1 mM TCEP, 21 °C 20 min, diluted twofold (100 mM ammonium acetate, 40% glycerol) before loading; SNAPc EMSA: 500 mM NaCl, 50 mM HEPES pH 7.9, 20% glycerol, 1 mM TCEP, 21 °C; smFRET lifetimes: T78 buffer, 1 mM DTT, room temperature. To be noted: protein: recombinant;recombinant; tags: N-terminal Strep on SNAPc190Δ; His cleaved from SNAPc50;C-terminal His (uncleavable); copies: 1;1;1;1;1; blunt. (In general: A gel shift assay detects complexes by their altered migration in electrophoresis.)

Data set [2] deals with SNAPcΔ;Bdp1SANT (Homo sapiens?;Homo sapiens, UniProt Q5SXM2;Q92966;Q16533;O75971;A6H8Y1 1-516;1-411;1-368;1-98;241-396, |). In words: EMSA; Bdp1SANT not recruited to SNAPc-DNA; not loss of SNAPc-DNA binding; EMSA: 500 mM ammonium acetate, 50 mM HEPES pH 7.9, 10% glycerol, 1 mM TCEP, 21 °C 20 min, diluted twofold (100 mM ammonium acetate, 40% glycerol) before loading; SNAPc EMSA: 500 mM NaCl, 50 mM HEPES pH 7.9, 20% glycerol, 1 mM TCEP, 21 °C; smFRET lifetimes: T78 buffer, 1 mM DTT, room temperature. To be noted: protein: recombinant;recombinant; tags: N-terminal Strep on SNAPc190Δ; His cleaved from SNAPc50;N-terminal His, cleavable; cleaved for crystallization; copies: 1;1;1;1;1; blunt.

Data set [3] deals with T1, Brf2 (62-419) (human, UniProt Q9HAW0 62-419).
T1 construct: Brf2 (TFIIB-related factor II), human, residues 62-419; also called TFIIB-related factor II; source: E. coli Rosetta (DE3)pLysS, co-expressed with TBP, purified in isolation (HisTrap, heparin, 3C cleavage, SEC); not shown: His tag, N-terminal, cleaved
In words: crystal structure; Brf2 (62-419), TBP (159-339) and Bdp1SANT with 25 bp of the human U6 promoter; complex at 60 uM, equimolar TBP and Brf2, 1.1 molar excess of Bdp1SANT, 1.2 excess of dsDNA; hanging drop, PEG 8000, KCl, MES pH 6.5, MgCl2; 2.7 Å. To be noted: both partners purified.

For data set [4], the target named is T2, TBP (core);Brf2 (62-419) (Homo sapiens;Homo sapiens, UniProt P20226;Q9HAW0 159-339;62-419, |). In words: competition; 0-200x unlabelled same-sequence DNA; less stable than with Bdp1SANT; EMSA: 500 mM ammonium acetate, 50 mM HEPES pH 7.9, 10% glycerol, 1 mM TCEP, 21 °C 20 min, diluted twofold (100 mM ammonium acetate, 40% glycerol) before loading; SNAPc EMSA: 500 mM NaCl, 50 mM HEPES pH 7.9, 20% glycerol, 1 mM TCEP, 21 °C; smFRET lifetimes: T78 buffer, 1 mM DTT, room temperature. The note with it: protein: recombinant;recombinant; tags: His-tag cleaved (3C);N-terminal His-tag cleaved (3C); copies: 1;1; label: 5' Cy5 on strand 1; blunt.

The target in data set [5] is T3, TBP (core);Brf2 (62-419);Bdp1SANT (Homo sapiens;Homo sapiens;Homo sapiens, UniProt P20226;Q9HAW0;A6H8Y1 159-339;62-419;241-396, ||). In words: EMSA; similar affinity to longer Bdp1 constructs; EMSA: 500 mM ammonium acetate, 50 mM HEPES pH 7.9, 10% glycerol, 1 mM TCEP, 21 °C 20 min, diluted twofold (100 mM ammonium acetate, 40% glycerol) before loading; SNAPc EMSA: 500 mM NaCl, 50 mM HEPES pH 7.9, 20% glycerol, 1 mM TCEP, 21 °C; smFRET lifetimes: T78 buffer, 1 mM DTT, room temperature. The note with it: protein: recombinant;recombinant;recombinant; tags: His-tag cleaved (3C);N-terminal His-tag cleaved (3C);N-terminal His, cleavable; cleaved for crystallization; copies: 1;1;1; label: 5' Cy5 on strand 1; blunt.

The target of data set [6] is T3, TBP (core);Brf2 (62-419);Bdp1SANT. In words: smFRET; complex lifetime 547 ± 87 s (heparin trap); EMSA: 500 mM ammonium acetate, 50 mM HEPES pH 7.9, 10% glycerol, 1 mM TCEP, 21 °C 20 min, diluted twofold (100 mM ammonium acetate, 40% glycerol) before loading; SNAPc EMSA: 500 mM NaCl, 50 mM HEPES pH 7.9, 20% glycerol, 1 mM TCEP, 21 °C; smFRET lifetimes: T78 buffer, 1 mM DTT, room temperature. The note with it: protein: recombinant;recombinant;recombinant; tags: His-tag cleaved (3C);N-terminal His-tag cleaved (3C);N-terminal His, cleavable; cleaved for crystallization; copies: 1;1;1; label: internal ATTO 532 donor and ATTO 647N acceptor; immobilized in TIRF assay; blunt.

The target in data set [7] is TBP (core) (Homo sapiens, UniProt P20226 159-339). In words: smFRET; 10 nM TBP; complex lifetime 0.29 s; EMSA: 500 mM ammonium acetate, 50 mM HEPES pH 7.9, 10% glycerol, 1 mM TCEP, 21 °C 20 min, diluted twofold (100 mM ammonium acetate, 40% glycerol) before loading; SNAPc EMSA: 500 mM NaCl, 50 mM HEPES pH 7.9, 20% glycerol, 1 mM TCEP, 21 °C; smFRET lifetimes: T78 buffer, 1 mM DTT, room temperature. To be noted: protein: recombinant; tags: His-tag cleaved (3C); label: internal ATTO 532 donor and ATTO 647N acceptor; immobilized in TIRF assay; blunt.

Data set [8] has as its target T2, TBP (core);Brf2 (62-419). In words: smFRET; complex lifetime 381 ± 33 s (heparin trap); EMSA: 500 mM ammonium acetate, 50 mM HEPES pH 7.9, 10% glycerol, 1 mM TCEP, 21 °C 20 min, diluted twofold (100 mM ammonium acetate, 40% glycerol) before loading; SNAPc EMSA: 500 mM NaCl, 50 mM HEPES pH 7.9, 20% glycerol, 1 mM TCEP, 21 °C; smFRET lifetimes: T78 buffer, 1 mM DTT, room temperature. The note with it: protein: recombinant;recombinant; tags: His-tag cleaved (3C);N-terminal His-tag cleaved (3C); copies: 1;1; label: internal ATTO 532 donor and ATTO 647N acceptor; immobilized in TIRF assay; blunt.

The target of data set [9] is T3, TBP (core);Brf2 (62-419);Bdp1SANT. In words: X-ray crystallography; 2.7 A; EMSA: 500 mM ammonium acetate, 50 mM HEPES pH 7.9, 10% glycerol, 1 mM TCEP, 21 °C 20 min, diluted twofold (100 mM ammonium acetate, 40% glycerol) before loading; SNAPc EMSA: 500 mM NaCl, 50 mM HEPES pH 7.9, 20% glycerol, 1 mM TCEP, 21 °C; smFRET lifetimes: T78 buffer, 1 mM DTT, room temperature. To be noted: protein: recombinant;recombinant;recombinant; tags: His-tag cleaved (3C);N-terminal His-tag cleaved (3C);N-terminal His, cleavable; cleaved for crystallization; copies: 1;1;1; 25 bp; template strand S1 has 1 nt 5' and 1 nt 3' overhang.

Data set [10] deals with T4, Brf2–TBP complex on U6 promoter DNA (Brf2–TBP–DNA complex) (human, UniProt Q9HAW0 62-419; P20226 159-339).
T4 construct: Brf2 (TFIIB-related factor II), human, residues 62-419; The complex stands on double-stranded U6 promoter DNA in every experiment (Cy5-labelled U6_2 38-mer in EMSA; 25 bp fragment with overhangs in the crystal); Bdp1 also contacts the DNA; also called TBP–Brf2; source: E. coli Rosetta (DE3)pLysS, each protein purified, assembled with double-stranded U6 promoter DNA; not shown: His tag, …
In words: crystal structure; Brf2 (62-419), TBP (159-339) and Bdp1SANT with 25 bp of the human U6 promoter; complex at 60 uM, equimolar TBP and Brf2, 1.1 molar excess of Bdp1SANT, 1.2 excess of dsDNA; hanging drop, PEG 8000, KCl, MES pH 6.5, MgCl2; 2.7 Å. To be noted: both partners purified.

Data set [11] has as its target B2. The data set is described as above. To be noted: both partners purified.
Data set [12] concerns the target T4, Brf2–TBP complex on U6 promoter DNA …. In words: native gel or EMSA; 1.5 pmol Cy5-labelled U6_2 dsDNA, 5 pmol TBP (159-339), 7 pmol Brf2 (62-419), 10 pmol Bdp1 construct in 20 ul; 500 mM ammonium acetate, 50 mM HEPES pH 7.9, 10% glycerol, 1 mM TCEP; 21 °C, 20 min; 4.5% polyacrylamide gel. The note with it: both partners purified.

T3 sequence (Q9HAW0 62-419, one chain of several): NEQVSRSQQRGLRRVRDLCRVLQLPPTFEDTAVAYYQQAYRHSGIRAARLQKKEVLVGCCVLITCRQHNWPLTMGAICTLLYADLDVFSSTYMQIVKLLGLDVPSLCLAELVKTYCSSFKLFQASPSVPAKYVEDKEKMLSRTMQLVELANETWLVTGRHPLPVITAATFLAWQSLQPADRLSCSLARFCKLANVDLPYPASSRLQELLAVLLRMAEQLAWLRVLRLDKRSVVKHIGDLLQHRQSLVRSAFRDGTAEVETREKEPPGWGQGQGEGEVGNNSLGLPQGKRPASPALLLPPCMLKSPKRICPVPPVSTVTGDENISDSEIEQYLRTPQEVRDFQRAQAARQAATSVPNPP
T1 sequence (Q9HAW0 62-419): as the sequence (Q9HAW0 62-419, one chain of several) above
T2 sequence (Q9HAW0 62-419, one chain of several): as above
T4 sequence (Q9HAW0 62-419, one chain of several): as above
Chain of SNAPcΔ;Bdp1SANT (Q5SXM2 1-516, stated change not applied, chain 1 of 4): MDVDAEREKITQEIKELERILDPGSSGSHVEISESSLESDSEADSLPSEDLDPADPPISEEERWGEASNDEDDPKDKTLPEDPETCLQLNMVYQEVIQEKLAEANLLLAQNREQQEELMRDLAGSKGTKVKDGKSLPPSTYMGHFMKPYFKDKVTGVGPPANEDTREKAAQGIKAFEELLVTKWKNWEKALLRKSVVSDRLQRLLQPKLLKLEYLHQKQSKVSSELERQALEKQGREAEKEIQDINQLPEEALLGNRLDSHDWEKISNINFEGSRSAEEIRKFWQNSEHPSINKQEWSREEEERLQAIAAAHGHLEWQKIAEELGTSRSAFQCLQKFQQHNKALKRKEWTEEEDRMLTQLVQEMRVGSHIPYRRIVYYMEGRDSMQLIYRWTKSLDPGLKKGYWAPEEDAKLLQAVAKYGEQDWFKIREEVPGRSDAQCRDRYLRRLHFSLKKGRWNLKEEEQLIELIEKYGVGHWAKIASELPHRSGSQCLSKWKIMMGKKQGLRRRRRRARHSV
Chain of SNAPcΔ;Bdp1SANT (Q92966 whole entry, stated change not applied, chain 2 of 4): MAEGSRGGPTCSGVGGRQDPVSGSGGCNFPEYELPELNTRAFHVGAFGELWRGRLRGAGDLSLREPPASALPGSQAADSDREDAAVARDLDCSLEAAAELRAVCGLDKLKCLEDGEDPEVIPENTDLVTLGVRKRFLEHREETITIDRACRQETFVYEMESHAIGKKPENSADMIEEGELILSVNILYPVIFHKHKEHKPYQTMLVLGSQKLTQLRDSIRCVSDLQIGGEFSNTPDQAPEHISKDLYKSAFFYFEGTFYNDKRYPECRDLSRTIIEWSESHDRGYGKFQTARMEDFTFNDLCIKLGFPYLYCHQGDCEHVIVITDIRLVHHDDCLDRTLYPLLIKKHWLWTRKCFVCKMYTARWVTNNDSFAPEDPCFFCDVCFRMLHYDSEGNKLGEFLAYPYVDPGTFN
Chain of SNAPcΔ;Bdp1SANT (Q16533 whole entry, stated change not applied, chain 3 of 4): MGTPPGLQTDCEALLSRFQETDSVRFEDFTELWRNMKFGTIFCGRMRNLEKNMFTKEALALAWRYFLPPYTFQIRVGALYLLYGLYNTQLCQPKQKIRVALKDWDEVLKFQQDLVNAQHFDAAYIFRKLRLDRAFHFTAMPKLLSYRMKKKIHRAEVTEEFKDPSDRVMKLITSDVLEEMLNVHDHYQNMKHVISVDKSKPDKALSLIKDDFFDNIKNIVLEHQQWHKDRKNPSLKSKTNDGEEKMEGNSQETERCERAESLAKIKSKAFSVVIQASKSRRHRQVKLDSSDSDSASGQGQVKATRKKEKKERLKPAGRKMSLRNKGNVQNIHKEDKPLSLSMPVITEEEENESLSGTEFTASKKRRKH
Chain of SNAPcΔ;Bdp1SANT (O75971 whole entry, stated change not applied, chain 4 of 4): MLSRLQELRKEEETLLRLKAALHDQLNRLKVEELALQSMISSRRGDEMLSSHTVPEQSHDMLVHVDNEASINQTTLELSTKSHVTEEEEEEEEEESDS

B1: U6_2 PSE probe (dsDNA)
DNA 1: CCATAAGTTATCCTAACCAAAAGATGATTTGA
DNA 2: TCAAATCATCTTTTGGTTAGGATAACTTATGG
Turning to B1, the binding result is reported as “binds” in data set [1] and “no binding” in data set [2].
Turning to B2, the binding result in data set [3] was “binds”.

B3: U6_2 TATA EMSA probe (dsDNA)
DNA 1: ATTTGATTGAAGGGCTTAAAATAGGTGTGACAGTAACC
DNA 2: GGTTACTGTCACACCTATTTTAAGCCCTTCAATCAAAT
For B3, the binding result in data set [4] and in data set [5] was “binds” each time.

B4: U6 snRNA promoter smFRET DNA (dsDNA)
DNA 1: CGGACCAAGATGATTTGATTGAAGGGCTTAAAATAGGTGTGAGAGTAACCCTTGA
DNA 2: TCAAGGGTTACTCTCACACCTATTTTAAGCCCTTCAATCAAATCATCTTGGTCCG
As to B4, the binding result in data set [6], in data set [7] and in data set [8] was “binds” each time.

B5: U6 promoter crystallization DNA (dsDNA)
DNA 1: TTGAAGGGCTTAAAATAGGTGTGAC
DNA 2: GGTCACACCTATTTTAAGCCCTTCAAC
On to B5, for which the binding result in data set [9] was “binds”.

B6: Bdp1SANT, human Bdp1 extended SANT domain (residues 241-396), affinity tag removed for crystallization (domain or fragment, UniProt A6H8Y1 241-396, looked up)
chain: GPLLVPRVKVAEDGSIILDEESLTVEVLRTKGPCVVEENDPIFERGSTTTYSSFRKNYYSKPWSNKETDMFFLAISMVGTDFSMIGQLFPHRARIEIKNKFKREEKTNGWRIDKAFQEKRPFDFDFFAHLLQKVLAEEEKRKQKSVKNHSLKEKKS
notes: Bdp1, human, extended SANT domain, residues 241-396; residues 286-382 are built in the electron density; Cloned into pOPINF (cleavable N-terminal His-tag); tag removed with 3C protease for crystallization; source: E. coli BL21-CodonPlus (DE3)-RIL, purified (Ni-NTA, 3C cleavage, heparin, SEC); not shown: His tag, N-terminal, cleaved
Turning to B6, the binding result in data set [3], in data set [10] and in data set [11] was “binds” in each case.

B7: Bdp1SANT, human Bdp1 extended SANT domain (residues 241-396), His-tagged (domain or fragment, UniProt A6H8Y1 241-396, looked up)
chain: GPLLVPRVKVAEDGSIILDEESLTVEVLRTKGPCVVEENDPIFERGSTTTYSSFRKNYYSKPWSNKETDMFFLAISMVGTDFSMIGQLFPHRARIEIKNKFKREEKTNGWRIDKAFQEKRPFDFDFFAHLLQKVLAEEEKRKQKSVKNHSLKEKKS
notes: Bdp1, human, extended SANT domain, residues 241-396; The tag is kept in the pull-down (held on His SpinTrap); it tells of cleavage only for crystallization; source: E. coli BL21-CodonPlus (DE3)-RIL, purified (Ni-NTA, heparin, SEC); not shown: His tag, N-terminal, kept
As for B7, the binding result in data set [12] is “binds”.
